Experiments:
[1] = tested on: TH1N1 (influenza A H1N1 target protein; protein identity not stated in the material) (Influenza A virus H1N1 (strain not stated)); assay: SPR
[2] = tested on: TH1N1 (influenza A H1N1 target protein; protein identity not stated in the material) (Influenza A virus H1N1 (strain not stated)); assay: electrochemical DPV (Apta-DEPSOR)
[3] = tested on: TH3N2 (influenza A H3N2 target protein; protein identity not stated in the material) (Influenza A virus H3N2 (strain not stated)); assay: SPR
[4] = tested on: TH3N2 (influenza A H3N2 target protein; protein identity not stated in the material) (Influenza A virus H3N2 (strain not stated)); assay: electrochemical DPV (Apta-DEPSOR)

Sequence	Kd [1] [nM]	binding signal [2]	Kd [3] [nM]	binding signal [4]	binding signal (fold lower signal than with TH3N2) [2]	binding signal (fold lower signal than with TH1N1) [4]
AGCAGCACAGAGGTCAGATGAGGTGATGAGATTTGTACCTCTCGCGGCACCCTATCGCTGCTACCGTGAA [Apt02>TH1N1]	57	2.26 µA (Ipc)				
AGCAGCACAGAGGTCAGATGATTGGATCGTGACGGTTGTTGGGGCTCCGCCTATCGCTGCTACCGTGAA [Apt01>TH1N1]	35000	0.85 µA (Ipc)				
AGCAGCACAGAGGTCAGATGCTAGCCGTGAGCGTGGTGAGCTCGGTTGACCCTATCGCTGCTACCGTGAA [Apt01>TH3N2]			0.14	1.73 µA (Ipc)	9	
AGCAGCACAGAGGTCAGATGGCGCGGGCGGTGCGTCGGTGTCCCGCTGGCCTATCGCTGCTACCGTGAA [Apt03>TH3N2]			0.6	1.11 µA (Ipc)		
AGCAGCACAGAGGTCAGATGGTGGTTGTTTTGGGCGAAGTGGCCATGGTCCCTATCGCTGCTACCGTGAA [Apt02>TH3N2]			1.7	1.16 µA (Ipc)		
AGCAGCACAGAGGTCAGATGTAGGTCGTACTCTGGCGGCCTGTTTGGCCCTATCGCTGCTACCGTGAA [Apt03>TH1N1]	0.082	3.37 µA (Ipc)				5
AGCAGCACAGAGGTCAGATGTCTGCAGCGTGCAGGGCTGTGTGCTTACCCCCTATCGCTGCTACCGTGAA [Apt04>TH3N2]			0.088	1.61 µA (Ipc)		
AGCAGCACAGAGGTCAGATGTGTGCGTGCTTGGGGTATAGTCGGGTCGGCCTATCGCTGCTACCGTGAA [Apt04>TH1N1]	1.6	1.23 µA (Ipc)				

Reference: paper PMC6491428
